Reference: publication PMC12342048

Target: mammalian cell-expressed human COMP (Cartilage Oligomeric Matrix Protein) (human) (UniProt P49747)
Sequence (P49747 21-757): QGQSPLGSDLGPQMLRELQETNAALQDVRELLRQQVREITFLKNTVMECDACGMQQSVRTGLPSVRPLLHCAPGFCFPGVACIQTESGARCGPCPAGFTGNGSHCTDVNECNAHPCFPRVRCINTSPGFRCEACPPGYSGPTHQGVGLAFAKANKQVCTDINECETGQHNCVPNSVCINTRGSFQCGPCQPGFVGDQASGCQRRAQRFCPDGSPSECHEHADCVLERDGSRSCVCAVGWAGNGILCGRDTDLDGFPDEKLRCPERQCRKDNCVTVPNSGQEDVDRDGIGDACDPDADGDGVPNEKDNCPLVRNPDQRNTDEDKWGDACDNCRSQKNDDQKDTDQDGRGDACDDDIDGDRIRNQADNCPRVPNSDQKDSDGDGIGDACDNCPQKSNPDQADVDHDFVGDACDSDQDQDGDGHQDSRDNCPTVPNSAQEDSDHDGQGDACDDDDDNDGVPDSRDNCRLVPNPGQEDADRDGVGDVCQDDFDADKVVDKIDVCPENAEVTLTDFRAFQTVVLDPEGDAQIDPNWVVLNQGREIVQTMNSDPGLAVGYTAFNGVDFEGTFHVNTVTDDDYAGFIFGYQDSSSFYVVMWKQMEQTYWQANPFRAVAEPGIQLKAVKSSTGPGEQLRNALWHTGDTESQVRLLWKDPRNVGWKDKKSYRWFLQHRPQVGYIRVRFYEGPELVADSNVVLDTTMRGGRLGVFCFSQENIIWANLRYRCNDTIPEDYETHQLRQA

Sequence of ADAMTS4 variant β3-β4; β9-β10 (both loops replaced with those of ADAMTS13) (O75173 52-837, change not shown): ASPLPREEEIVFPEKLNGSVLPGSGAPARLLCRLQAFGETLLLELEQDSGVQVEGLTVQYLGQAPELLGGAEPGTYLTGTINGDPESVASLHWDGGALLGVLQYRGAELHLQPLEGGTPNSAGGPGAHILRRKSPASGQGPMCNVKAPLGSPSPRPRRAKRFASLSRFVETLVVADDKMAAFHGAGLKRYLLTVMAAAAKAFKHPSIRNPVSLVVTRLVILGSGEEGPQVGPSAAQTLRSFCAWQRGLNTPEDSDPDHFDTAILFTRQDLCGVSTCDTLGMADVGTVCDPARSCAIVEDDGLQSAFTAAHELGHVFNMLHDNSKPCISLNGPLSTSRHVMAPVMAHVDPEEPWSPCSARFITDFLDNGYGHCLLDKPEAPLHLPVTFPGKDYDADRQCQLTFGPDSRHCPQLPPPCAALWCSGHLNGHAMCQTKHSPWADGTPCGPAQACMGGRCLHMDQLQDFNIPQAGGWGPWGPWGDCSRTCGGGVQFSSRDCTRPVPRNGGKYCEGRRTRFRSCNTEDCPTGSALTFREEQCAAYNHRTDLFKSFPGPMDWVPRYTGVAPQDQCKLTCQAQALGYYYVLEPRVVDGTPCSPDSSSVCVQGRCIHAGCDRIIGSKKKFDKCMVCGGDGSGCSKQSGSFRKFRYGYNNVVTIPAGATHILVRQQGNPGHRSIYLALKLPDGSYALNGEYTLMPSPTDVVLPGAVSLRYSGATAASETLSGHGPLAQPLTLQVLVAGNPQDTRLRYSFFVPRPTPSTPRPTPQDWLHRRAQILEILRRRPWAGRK
Sequence of ADAMTS4 variant β1-β2 (residues 693–698 swapped with those of ADAMTS13) (O75173 52-837, change not shown): as above

| Substance | reduction in COMPase activity at the S77-V78 bond compared to WT ADAMTS4 (hCOMP 520 nM, enzyme 12 nM, 2 h, 37 °C; densitometry of anti-QQS77 immunoblot, WT set as 100 %) [% reduction] |
| --- | --- |
| ADAMTS4 variant β3-β4; β9-β10 (both loops replaced with those of ADAMTS13) (from UniProt O75173 52-837) (enzyme) | 20 |
| ADAMTS4 variant β1-β2 (residues 693–698 swapped with those of ADAMTS13) (from UniProt O75173 52-837) (enzyme) | 25 |
